T1: Recombinant human CTLA4-Fc (human, UniProt P16410 36-161, limits assumed)
T1 construct: Coated on the ELISA plate at 1 ug/mL; also called antigen; not shown: Fc part
T1 sequence (looked up): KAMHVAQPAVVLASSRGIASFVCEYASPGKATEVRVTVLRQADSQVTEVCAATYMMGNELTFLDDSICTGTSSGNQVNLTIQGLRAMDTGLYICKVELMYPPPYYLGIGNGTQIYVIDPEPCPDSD


Columns and labels:
[1] = target: T1, Recombinant human CTLA4-Fc; experiment: ELISA EC50 divided by EC50 of parental TY21580, data batch 2
Procedure: (§1) Recombinant human CTLA4-Fc was diluted to 1μg/mL in PBS and coated on a Maxisorp plate at 4° C. overnight. Plates were blocked with PBS supplemented with 3% non-fat milk at 37° C. for 1 hour. After washing, 100 μL of 3-fold serial dilutions of antibodies were added to each well. After incubation at 37° C. for 1 hour, plates were washed four times, and 100 μL HRP conjugated anti-human IgG (Fab specific) (1:6000 dilution) was added to each well. Plates were incubated at 37° C. for 1 hour, washed four times, and then 50 μL TMB substrate solution was added to each well, and the plate was incubated at room temperature. Absorbance at 450 nm was measured after the reactions were stopped with 50 μL H₂SO₄ per well. The EC₅₀ was evaluated by fitting the ELISA data using the asymmetrical sigmoidal (five-parameter logistic equation) model of GraphPad Prism 6 software.

[2] = target: T1, Recombinant human CTLA4-Fc; experiment: ELISA EC50 divided by EC50 of parental TY21580, data batch 1
Procedure: as §1

[3] = target: T1, Recombinant human CTLA4-Fc; experiment: ELISA EC50 divided by EC50 of parental TY21580, third block of Table 6
Procedure: as §1

[4] = target: T2, Human CD137 displayed on yeast cells (human, UniProt Q07011 24-186, limits assumed); experiment: flow cytometry on yeast cells displaying human CD137; column headed EC50 / KD (nM)
T2 construct: Yeast cells displaying human CD137, stained with serial dilutions of antibody; also called human CD137 on the cell surface
Procedure: (§2) The masking efficiency was then measured through flow cytometry. Briefly, yeast cells displaying human CD137 on their surface washed twice with PB SA buffer, and 50 μL (1×10̂6) cells were dispensed into each well of a 96 well plate. Cells were then incubated with 3-fold serial dilutions of antibodies for 1 hour on ice, washed once with PBSA buffer, and then incubated with 100 μL of PE conjugated mouse anti-human Fc (1 μg/ml) for 30 minutes on ice. The cells were then washed once prior to analysis by flow cytometry (Beckman® CytoFlex).

[5] = target: T2, Human CD137 displayed on yeast cells; experiment: flow cytometry on yeast cells displaying human CD137; ratio to parental TY21242
Procedure: as §2

Row | EC50 [4] [nM] | Masking efficiency [5] | Binder | further results
1 |  |  | TY22404 (antibody, IgG1, V domains shown, IgG1 from HEK293F cells, uncleaved; also called peptide name B13197) VH: EVQLVESGGGLVQPGGSLRLSCAASGYSISSGYHWSWIRQAPGKGLEWLARIDWDDDKYYSTSLKSRLTISRDNSKNTLYLQLNSLRAEDTAVYYCARSYVYFDYWGQGTLVTVSS VL: EVGSYPNPSSDCVPYYYACAYSGRSAGGGGSPLGLAGSGGSDIQLTQSPSSLSASVGDRVTITCRASQSVRGRFLAWYQQKPGKAPKLLIYDASNRATGIPSRFSGSGSGTDFTLTISSLQPEDFATYYCQQSSSWPPTFGQGTKVEIKR | Masking efficiency [1]: 385; Masking efficiency [2]: 826
2 |  |  | TY22564 (antibody, V domains shown, IgG1, uncleaved; mask derived from B13192 or B13197 to remove a potential glycosylation site) VH: EVQLVESGGGLVQPGGSLRLSCAASGYSISSGYHWSWIRQAPGKGLEWLARIDWDDDKYYSTSLKSRLTISRDNSKNTLYLQLNSLRAEDTAVYYCARSYVYFDYWGQGTLVTVSS VL: EVGSYYSAYPACDSHYPYCNSAGRSAGGGGSPLGLAGSGGSDIQLTQSPSSLSASVGDRVTITCRASQSVRGRFLAWYQQKPGKAPKLLIYDASNRATGIPSRFSGSGSGTDFTLTISSLQPEDFATYYCQQSSSWPPTFGQGTKVEIKR | Masking efficiency [3]: 117
3 |  |  | TY22566 (antibody, V domains shown, IgG1, uncleaved; mask derived from B13192 or B13197 to remove a potential glycosylation site) VH: EVQLVESGGGLVQPGGSLRLSCAASGYSISSGYHWSWIRQAPGKGLEWLARIDWDDDKYYSTSLKSRLTISRDNSKNTLYLQLNSLRAEDTAVYYCARSYVYFDYWGQGTLVTVSS VL: EVGSYPNPASDCVPYYYACAYSGRSAGGGGSPLGLAGSGGSDIQLTQSPSSLSASVGDRVTITCRASQSVRGRFLAWYQQKPGKAPKLLIYDASNRATGIPSRFSGSGSGTDFTLTISSLQPEDFATYYCQQSSSWPPTFGQGTKVEIKR | Masking efficiency [3]: 489
4 |  |  | TY22563 (antibody, V domains shown, IgG1, uncleaved; mask derived from B13192 or B13197 to remove a potential glycosylation site) VH: EVQLVESGGGLVQPGGSLRLSCAASGYSISSGYHWSWIRQAPGKGLEWLARIDWDDDKYYSTSLKSRLTISRDNSKNTLYLQLNSLRAEDTAVYYCARSYVYFDYWGQGTLVTVSS VL: EVGSYYSAYPACDSHYPYCQSSGRSAGGGGSPLGLAGSGGSDIQLTQSPSSLSASVGDRVTITCRASQSVRGRFLAWYQQKPGKAPKLLIYDASNRATGIPSRFSGSGSGTDFTLTISSLQPEDFATYYCQQSSSWPPTFGQGTKVEIKR | Masking efficiency [3]: 144
5 |  |  | TY22401 (antibody, V domains shown, IgG1 from HEK293F cells, uncleaved; also called peptide name B13189) VH: EVQLVESGGGLVQPGGSLRLSCAASGYSISSGYHWSWIRQAPGKGLEWLARIDWDDDKYYSTSLKSRLTISRDNSKNTLYLQLNSLRAEDTAVYYCARSYVYFDYWGQGTLVTVSS VL: EVGSYNFVADSCPDHPYPCSASGRSAGGGGSPLGLAGSGGSDIQLTQSPSSLSASVGDRVTITCRASQSVRGRFLAWYQQKPGKAPKLLIYDASNRATGIPSRFSGSGSGTDFTLTISSLQPEDFATYYCQQSSSWPPTFGQGTKVEIKR | Masking efficiency [1]: 48; Masking efficiency [2]: 110
6 |  |  | TY22565 (antibody, V domains shown, IgG1, uncleaved; mask derived from B13192 or B13197 to remove a potential glycosylation site) VH: EVQLVESGGGLVQPGGSLRLSCAASGYSISSGYHWSWIRQAPGKGLEWLARIDWDDDKYYSTSLKSRLTISRDNSKNTLYLQLNSLRAEDTAVYYCARSYVYFDYWGQGTLVTVSS VL: EVGSYPQPSSDCVPYYYACAYSGRSAGGGGSPLGLAGSGGSDIQLTQSPSSLSASVGDRVTITCRASQSVRGRFLAWYQQKPGKAPKLLIYDASNRATGIPSRFSGSGSGTDFTLTISSLQPEDFATYYCQQSSSWPPTFGQGTKVEIKR | Masking efficiency [3]: 632
7 |  |  | TY22402 (antibody, IgG1, V domains shown, IgG1 from HEK293F cells, uncleaved; also called peptide name B13180) VH: EVQLVESGGGLVQPGGSLRLSCAASGYSISSGYHWSWIRQAPGKGLEWLARIDWDDDKYYSTSLKSRLTISRDNSKNTLYLQLNSLRAEDTAVYYCARSYVYFDYWGQGTLVTVSS VL: EVGSYIVHHSDCDAFYPYCDSSGRSAGGGGSPLGLAGSGGSDIQLTQSPSSLSASVGDRVTITCRASQSVRGRFLAWYQQKPGKAPKLLIYDASNRATGIPSRFSGSGSGTDFTLTISSLQPEDFATYYCQQSSSWPPTFGQGTKVEIKR | Masking efficiency [1]: 377; Masking efficiency [2]: 2210
8 | 0.28 | 1 | TY21242 (antibody, V domains shown, Anti-human-CD137 antibody; the isotype of the parent is not restated; also called parental antibody TY21242; parental CD137 antibody) VH: EVQLVESGGGLVQPGGSLRLSCAASGFSLSTGGVGVGWIRQAPGKGLEWLALIDWADDKYYSPSLKSRLTISRDNSKNTLYLQLNSLRAEDTAVYYCARGGSDTVIGDWFAYWGQGTLVTVSS VL: DIQLTQSPSSLSASVGDRVTITCRASQSIGSYLAWYQQKPGKAPKLLIYDASNLETGVPSRFSGSGSGTDFTLTISSLQPEDFATYYCQQGYYLWTFGQGTKVEIK | 
9 | 5.86 | 20.8 | TY22596 (antibody, V domains shown, Full IgG4 expressed in mammalian cells, uncleaved) VH: EVQLVESGGGLVQPGGSLRLSCAASGFSLSTGGVGVGWIRQAPGKGLEWLALIDWADDKYYSPSLKSRLTISRDNSKNTLYLQLNSLRAEDTAVYYCARGGSDTVIGDWFAYWGQGTLVTVSS VL: EVGSYYHDYDDCRVLPRRCFNSGRSAGGGGSPLGLAGSGGSDIQLTQSPSSLSASVGDRVTITCRASQSIGSYLAWYQQKPGKAPKLLIYDASNLETGVPSRFSGSGSGTDFTLTISSLQPEDFATYYCQQGYYLWTFGQGTKVEIK | 
10 | 10.8 | 38.3 | TY22591 (antibody, V domains shown, Full IgG4 expressed in mammalian cells, uncleaved) VH: EVQLVESGGGLVQPGGSLRLSCAASGFSLSTGGVGVGWIRQAPGKGLEWLALIDWADDKYYSPSLKSRLTISRDNSKNTLYLQLNSLRAEDTAVYYCARGGSDTVIGDWFAYWGQGTLVTVSS VL: EVGSYSSTHAHCHHSPANCISSGRSAGGGGSPLGLAGSGGSDIQLTQSPSSLSASVGDRVTITCRASQSIGSYLAWYQQKPGKAPKLLIYDASNLETGVPSRFSGSGSGTDFTLTISSLQPEDFATYYCQQGYYLWTFGQGTKVEIK | 
11 | 8.61 | 30.5 | TY22598 (antibody, V domains shown, Full IgG4 expressed in mammalian cells, uncleaved) VH: EVQLVESGGGLVQPGGSLRLSCAASGFSLSTGGVGVGWIRQAPGKGLEWLALIDWADDKYYSPSLKSRLTISRDNSKNTLYLQLNSLRAEDTAVYYCARGGSDTVIGDWFAYWGQGTLVTVSS VL: EVGSYSNNFASCLWRHRSCADSGRSAGGGGSPLGLAGSGGSDIQLTQSPSSLSASVGDRVTITCRASQSIGSYLAWYQQKPGKAPKLLIYDASNLETGVPSRFSGSGSGTDFTLTISSLQPEDFATYYCQQGYYLWTFGQGTKVEIK | 
12 | 107 | 379 | TY22595 (antibody, V domains shown, Full IgG4 expressed in mammalian cells, uncleaved) VH: EVQLVESGGGLVQPGGSLRLSCAASGFSLSTGGVGVGWIRQAPGKGLEWLALIDWADDKYYSPSLKSRLTISRDNSKNTLYLQLNSLRAEDTAVYYCARGGSDTVIGDWFAYWGQGTLVTVSS VL: EVGSYNDYNYHCKWRPSRCHNSGRSAGGGGSPLGLAGSGGSDIQLTQSPSSLSASVGDRVTITCRASQSIGSYLAWYQQKPGKAPKLLIYDASNLETGVPSRFSGSGSGTDFTLTISSLQPEDFATYYCQQGYYLWTFGQGTKVEIK | 
13 | 23.6 | 83.7 | TY22594 (antibody, V domains shown, Full IgG4 expressed in mammalian cells, uncleaved) VH: EVQLVESGGGLVQPGGSLRLSCAASGFSLSTGGVGVGWIRQAPGKGLEWLALIDWADDKYYSPSLKSRLTISRDNSKNTLYLQLNSLRAEDTAVYYCARGGSDTVIGDWFAYWGQGTLVTVSS VL: EVGSYDTDYDFCPILRHRCDSSGRSAGGGGSPLGLAGSGGSDIQLTQSPSSLSASVGDRVTITCRASQSIGSYLAWYQQKPGKAPKLLIYDASNLETGVPSRFSGSGSGTDFTLTISSLQPEDFATYYCQQGYYLWTFGQGTKVEIK | 
14 |  | 300 fold | TY22586 (antibody, V domains shown, Full IgG4 expressed in mammalian cells, uncleaved) VH: EVQLVESGGGLVQPGGSLRLSCAASGFSLSTGGVGVGWIRQAPGKGLEWLALIDWADDKYYSPSLKSRLTISRDNSKNTLYLQLNSLRAEDTAVYYCARGGSDTVIGDWFAYWGQGTLVTVSS VL: EVGSYPTDLDACADAPNHCHFSGRSAGGGGSPLGLAGSGGSDIQLTQSPSSLSASVGDRVTITCRASQSIGSYLAWYQQKPGKAPKLLIYDASNLETGVPSRFSGSGSGTDFTLTISSLQPEDFATYYCQQGYYLWTFGQGTKVEIK | 
15 | 98.1 | 348 | TY22599 (antibody, V domains shown, Full IgG4 expressed in mammalian cells, uncleaved) VH: EVQLVESGGGLVQPGGSLRLSCAASGFSLSTGGVGVGWIRQAPGKGLEWLALIDWADDKYYSPSLKSRLTISRDNSKNTLYLQLNSLRAEDTAVYYCARGGSDTVIGDWFAYWGQGTLVTVSS VL: EVGSYTDNYDYCPRLRRKCYHSGRSAGGGGSPLGLAGSGGSDIQLTQSPSSLSASVGDRVTITCRASQSIGSYLAWYQQKPGKAPKLLIYDASNLETGVPSRFSGSGSGTDFTLTISSLQPEDFATYYCQQGYYLWTFGQGTKVEIK | 

Reference: US20190241886A1 (ADAGENE, published 2019)
